In the assay the target is human C3b (human) (UniProt P01024). The assay is described as follows: cell-based or functional assay.

“And” between values parts separate entries of the source, which are not always exact repeats. Identical values can stand only once.

Sequence of UniProt P01024 (P01024 749-1663 limits assumed, chain 1 of 2): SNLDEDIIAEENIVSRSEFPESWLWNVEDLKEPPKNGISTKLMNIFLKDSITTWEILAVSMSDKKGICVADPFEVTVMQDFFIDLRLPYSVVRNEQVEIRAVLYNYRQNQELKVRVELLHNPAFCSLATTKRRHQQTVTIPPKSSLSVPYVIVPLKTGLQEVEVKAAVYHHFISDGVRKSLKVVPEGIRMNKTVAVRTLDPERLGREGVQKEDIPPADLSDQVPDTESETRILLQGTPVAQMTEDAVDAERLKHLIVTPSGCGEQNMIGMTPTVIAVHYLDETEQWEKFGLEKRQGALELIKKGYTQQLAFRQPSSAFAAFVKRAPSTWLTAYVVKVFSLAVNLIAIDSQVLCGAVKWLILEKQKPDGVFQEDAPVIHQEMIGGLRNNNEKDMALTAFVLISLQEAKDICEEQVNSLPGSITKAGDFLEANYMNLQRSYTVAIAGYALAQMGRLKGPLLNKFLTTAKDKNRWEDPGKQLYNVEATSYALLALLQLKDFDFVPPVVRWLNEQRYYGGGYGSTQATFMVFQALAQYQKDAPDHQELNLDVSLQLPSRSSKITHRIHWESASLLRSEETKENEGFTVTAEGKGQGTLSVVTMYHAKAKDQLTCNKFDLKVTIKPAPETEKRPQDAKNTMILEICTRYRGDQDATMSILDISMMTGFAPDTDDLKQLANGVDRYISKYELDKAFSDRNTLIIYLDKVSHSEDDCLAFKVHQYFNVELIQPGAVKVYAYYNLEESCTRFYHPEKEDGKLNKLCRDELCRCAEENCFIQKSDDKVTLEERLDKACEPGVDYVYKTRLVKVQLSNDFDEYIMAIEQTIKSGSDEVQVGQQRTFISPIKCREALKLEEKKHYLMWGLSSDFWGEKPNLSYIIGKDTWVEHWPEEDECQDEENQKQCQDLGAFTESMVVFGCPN
Sequence of UniProt P01024 (P01024 23-667 limits assumed, chain 2 of 2): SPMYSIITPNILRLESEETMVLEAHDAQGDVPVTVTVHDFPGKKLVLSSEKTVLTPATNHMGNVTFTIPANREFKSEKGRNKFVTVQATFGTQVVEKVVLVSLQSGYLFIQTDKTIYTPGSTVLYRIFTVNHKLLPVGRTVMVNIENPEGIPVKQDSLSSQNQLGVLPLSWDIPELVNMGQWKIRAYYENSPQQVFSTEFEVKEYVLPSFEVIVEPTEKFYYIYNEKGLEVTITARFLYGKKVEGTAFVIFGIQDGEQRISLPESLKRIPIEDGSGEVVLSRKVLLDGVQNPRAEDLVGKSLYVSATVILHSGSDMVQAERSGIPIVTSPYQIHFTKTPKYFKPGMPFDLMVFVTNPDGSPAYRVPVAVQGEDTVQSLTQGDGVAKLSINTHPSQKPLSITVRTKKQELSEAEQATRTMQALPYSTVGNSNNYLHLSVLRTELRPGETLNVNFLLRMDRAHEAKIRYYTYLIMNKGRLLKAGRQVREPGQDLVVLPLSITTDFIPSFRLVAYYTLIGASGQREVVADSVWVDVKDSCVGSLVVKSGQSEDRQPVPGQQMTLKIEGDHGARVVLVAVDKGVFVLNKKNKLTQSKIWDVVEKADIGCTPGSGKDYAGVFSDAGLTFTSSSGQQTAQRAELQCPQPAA

As for “human FHL-1 (factor H like protein 1), recombinant (from UniProt P08603 19-449)”, the half-maximum cleavage activity of hC3b (cofactor dilution, start 0.7 µg in 5 µl) (fold dilution (1:x)) is 16 and 8.

As to “recombinant fragment pFH SCR1-4 (porcine complement regulator factor H, short consensus repeats 1-4)”, the difference in half-maximum activity in the cleavage of human C3b against human FHL-1 (dilution step) is less than 1; the half-maximum cleavage activity of hC3b (cofactor dilution, start 0.7 µg in 5 µl) (fold dilution (1:x)) was 8 and 16.

For the origin of these results see patent EP1336618A1.
